Data published in patent US20100029554A1, “Composition and Methods for Treatment of Congestive Heart Failure” (Amylin Pharmaceuticals, Inc., priority 2006, published 2010).
Where no end group is shown, it is not given here.

Assays:
Plasma stability = type: in vitro ADME; conditions: 20 μg/mL in plasma, 37° C., 0-5 hours
Protocol: To assess stability, the compound of interest is spiked into plasma at a concentration of 20 μg/mL. It is incubated at 37° C. for 0, 1, 2 3, 4, 5 hours in triplicate. At each time point, MeOH is added to a 96 well microtiter plate and then sample is added in a ratio of 1 part sample to 4 parts MeOH to quench the digestion reaction. Samples are mixed with multi-channel pipette or liquid handler. The plate is then centrifuged for 10 minutes and placed in an autosampler kept at 10° C. Samples are then injected into a mass spectrometer (API 3000, Applied Biosystems) equipped with an autosampler (Leap HTC Pal) and HPLC pumps (Shimadzu LC-10ADVP).

[1] = target: T1, GLP-1 receptor, endogenous in RINm5f cells (rat (RIN-m5F are called rat pancreas …, UniProt P32301 22-463)); assay: cell-based or functional assay
T1 sequence (looked up): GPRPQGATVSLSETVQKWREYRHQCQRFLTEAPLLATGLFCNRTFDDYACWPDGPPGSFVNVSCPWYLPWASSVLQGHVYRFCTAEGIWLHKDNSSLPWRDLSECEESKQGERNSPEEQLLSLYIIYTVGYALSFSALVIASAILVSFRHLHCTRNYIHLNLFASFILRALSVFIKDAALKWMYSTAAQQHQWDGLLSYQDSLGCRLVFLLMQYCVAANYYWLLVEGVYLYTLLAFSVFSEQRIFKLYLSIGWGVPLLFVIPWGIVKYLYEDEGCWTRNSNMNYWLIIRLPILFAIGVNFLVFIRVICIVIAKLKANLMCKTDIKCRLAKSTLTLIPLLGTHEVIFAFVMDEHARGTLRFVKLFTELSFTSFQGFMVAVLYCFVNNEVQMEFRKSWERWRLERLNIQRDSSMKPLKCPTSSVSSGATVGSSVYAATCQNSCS

| Molecule | cAMP, GLP-1 CYCLASE (6-23) EC50 [1] | further results |
| --- | --- | --- |
| CC[C@H](C)[C@H](NC(=O)[C@H](Cc1ccccc1)NC(=O)[C@H](CCC(=O)O)NC(=O)[C@H](CCCCN)NC(=O)[C@H](C)NC(=O)[C@H](C)NC(=O)[C@H](CCC(N)=O)NC(=O)CNC(=O)[C@H](CCC(=O)O)NC(=O)[C@H](CC(C)C)NC(=O)[C@H](Cc1ccc(O)cc1)NC(=O)[C@H](CO)NC(=O)[C@H](CO)NC(=O)[C@@H](NC(=O)[C@H](CC(=O)O)NC(=O)[C@H](CO)NC(=O)[C@@H](NC(=O)[C@H](Cc1ccccc1)NC(=O)[C@@H](NC(=O)CNC(=O)[C@H](CCC(=O)O)NC(=O)[C@H](C)NC(=O)[C@H](Cc1c[nH]cn1)NC(=O)COCCOCCNC(=O)COCCOCCNC(=O)[C@@H]1CCCN1C(=O)[C@H](C)NC(CCc1ccccc1)C(=O)O)[C@@H](C)O)[C@@H](C)O)C(C)C)C(=O)N[C@@H](C)C(=O)N[C@@H](Cc1c[nH]c2ccccc12)C(=O)N[C@@H](CC(C)C)C(=O)N[C@H](C(=O)N[C@@H](CCCCN)C(=O)NCC(=O)N[C@@H](CCCNC(=N)N)C(N)=O)C(C)C (stereo partly drawn) [Cmpd 4984, (R,S)-1-[N2-(1-carboxy-3-phenylpropyl)-L-ala]-L-pro-ado-ado-GLP-1-(7-36) amide] | – | plasma stability as compared to native GLP-1 (Plasma stability): increased plasma stability |
| CC[C@H](C)[C@H](NC(=O)[C@H](Cc1ccccc1)NC(=O)[C@H](CCC(=O)O)NC(=O)[C@H](CCCCN)NC(=O)[C@H](C)NC(=O)[C@H](C)NC(=O)[C@H](CCC(N)=O)NC(=O)CNC(=O)[C@H](CCC(=O)O)NC(=O)[C@H](CC(C)C)NC(=O)[C@H](Cc1ccc(O)cc1)NC(=O)[C@H](CO)NC(=O)[C@H](CO)NC(=O)[C@@H](NC(=O)[C@H](CC(=O)O)NC(=O)[C@H](CO)NC(=O)[C@@H](NC(=O)[C@H](Cc1ccccc1)NC(=O)[C@@H](NC(=O)CNC(=O)[C@H](CCC(=O)O)NC(=O)[C@H](C)NC(=O)[C@H](Cc1c[nH]cn1)NC(=O)COCCOCCNC(=O)[C@@H]1CCCN1C(=O)[C@H](C)NC(CCc1ccccc1)C(=O)O)[C@@H](C)O)[C@@H](C)O)C(C)C)C(=O)N[C@@H](C)C(=O)N[C@@H](Cc1c[nH]c2ccccc12)C(=O)N[C@@H](CC(C)C)C(=O)N[C@H](C(=O)N[C@@H](CCCCN)C(=O)NCC(=O)N[C@@H](CCCNC(=N)N)C(N)=O)C(C)C (stereo partly drawn) [Cmpd 4983, (R,S)-1-[N2-(1-carboxy-3-phenylpropyl)-L-ala]-L-pro-ado-GLP-1-(7-36) amide] | – | plasma stability as compared to native GLP-1 (Plasma stability): increased plasma stability; plasma stability as compared to native GLP-1 (Plasma stability; second, narrower list of b152): increased plasma stability |
| CC[C@H](C)[C@H](NC(=O)[C@H](Cc1ccccc1)NC(=O)[C@H](CCC(=O)O)NC(=O)[C@H](CCCCN)NC(=O)[C@H](C)NC(=O)[C@H](C)NC(=O)[C@H](CCC(N)=O)NC(=O)CNC(=O)[C@H](CCC(=O)O)NC(=O)[C@H](CC(C)C)NC(=O)[C@H](Cc1ccc(O)cc1)NC(=O)[C@H](CO)NC(=O)[C@H](CO)NC(=O)[C@@H](NC(=O)[C@H](CC(=O)O)NC(=O)[C@H](CO)NC(=O)[C@@H](NC(=O)[C@H](Cc1ccccc1)NC(=O)[C@@H](NC(=O)CNC(=O)[C@H](CCC(=O)O)NC(=O)[C@H](C)NC(=O)[C@H](Cc1c[nH]cn1)NC(=O)COCCOCCN)[C@@H](C)O)[C@@H](C)O)C(C)C)C(=O)N[C@@H](C)C(=O)N[C@@H](Cc1c[nH]c2ccccc12)C(=O)N[C@@H](CC(C)C)C(=O)N[C@H](C(=O)N[C@@H](CCCCN)C(=O)NCC(=O)N[C@@H](CCCNC(=N)N)C(N)=O)C(C)C [Cmpd 4992] | – | plasma stability as compared to native GLP-1 (Plasma stability): increased plasma stability; plasma stability as compared to native GLP-1 (Plasma stability; second, narrower list of b152): increased plasma stability |
| HGEGTFTSDLSKQVQEEAVRLFVEFLKN-NH2 [Cmpd 5035] | – | cAMP, CYCLASE GLP/GIP/CT (RIN) EC50 [1]: 628000 pM |
| HGEGTFTSDVTEYLEEEAVRLFIEWLKQGGPSSGAPPPS-NH2 [Cmpd 5129] | – | cAMP, CYCLASE GLP/GIP/CT (RIN) EC50 [1]: 1090 pM |
| HGEGTFTSDLSKQLEEEAVRLFIEWLKNGKPKKIRYA [Cmpd 5439] | 170 pM | – |
| HGEGTFTSDLSKQLEEEAVRLFIEWLKNGKPAKIRYS [Cmpd 5443] | 80 pM | – |
| HGEGTFTSDLSKQLEEEAVRLFIEWLKNGKPKKARYS [Cmpd 5441] | 128 pM | – |
| HGEGTFTSDLSKQLEEEAVRLFIEWLKNGKPKKIAYS [Cmpd 5440] | 130 pM | – |
| HGEGTFTSDLSKQLEEEAVRLFIEWLKNGKPKAIRYS [Cmpd 5442] | 100 pM | – |
| HGEGTFTSDLSKQLEEEAVRLFIEWLKNGKPGKGKIRYS [Cmpd 5295] | 89 pM | – |
| HGEGTFTSDLSKQLEEEAVRLFIEWLKNGKPGGKKIRYS [Cmpd 5451] | – | cAMP, CYCLASE GLP/GIP/CT (RIN) EC50 [1]: 205 pM |
| HGEGTFTSDLSKQLEEEAVRLFIEWLIKGKP [Cmpd 5227] | 629 pM | – |
| HGEGTFTSDLVKILEAEAVRKFIEFLKNGGPSSGAPPPS-NH2 [Cmpd 5529] | 388 pM | – |
| HGEGTFTSDLSKQLEEKAAKEFIEWLIQGGPSKEIIS [Cmpd 5101] | – | cAMP, CYCLASE GLP/GIP/CT (RIN) EC50 [1]: 863 pM |
| HGEGTFTSDLSKQLEEEAVRLFIEWLKNGGPSKEIIA [Cmpd 5444] | 90 pM | – |
| HGEGTFTSDLSKQLEEEAVRLFIEWLKNGGPSKEIAS [Cmpd 5445] | 90 pM | – |
| HGEGTFTSDLSKQLEEEAVRLFIEWLKNGGPSKAIIS [Cmpd 5446] | 100 pM | – |
